Results on 27 variants are retold here after the supplement of paper PMC7125110.

B1: glmS ribozyme (parent)
chain: AUAAAAGCGCCAGAACUACAGAAAUGUAGUUGACGAGGAGGAGGUUUAUCGAAUUUUCGGCGGAUGCCUCCAAA

± gives the standard error. Fewer inactive variants are shown than the library holds.

Holding throughout (details): with glucosamine-6-phosphate
Data set [1] covers variants of B1. Briefly: self-cleavage kobs at 160 uM GlcN6P; higher = faster cleavage; RNA array. The procedure, abridged: (§1)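 Barcoded ribozyme variants on sequenced MiSeq chips were transcribed in situ by E. coli RNA polymerase and followed at 37 °C through a hybridised Cy3 probe. Glucosamine-6-phosphate at 40 μM to 10 mM in HEPES/KCl/Mg(OAc)2 buffer was flowed in, and tiles were imaged over ~14 h. Signals were normalised to baseline and to non-cleaving reference variants, and per-tile medians were fit to one- or two-exponential decays to give kobs. Weighted Michaelis–Menten fits across concentrations gave kcat and KM.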

Data set [2] covers variants of B1. Kind of data set: self-cleavage kobs at 640 uM GlcN6P; higher = faster cleavage; RNA array. The essentials: as §1
In data set [3] the parent is B1. Kind of data set: self-cleavage kobs at 2500 uM GlcN6P; higher = faster cleavage; RNA array. The procedure, abridged: as §1
Data set [4] covers variants of B1. Briefly: self-cleavage kobs at 10000 uM GlcN6P; higher = faster cleavage; RNA array. The procedure, abridged:
as §1

As to G44U G59U, the “self-cleavage kobs at 160 uM GlcN6P” value in data set [1] was less than 1e-05 s⁻¹. Besides, in data set [2], the “self-cleavage kobs at 640 uM GlcN6P” value is less than 1e-05 s⁻¹. Also, the “self-cleavage kobs at 2500 uM GlcN6P” value in data set [3] is less than 1e-05 s⁻¹. Moreover, in data set [4], the “self-cleavage kobs at 10000 uM GlcN6P” value is less than 1e-05 s⁻¹.

With A12G A15G G29A G32C G37U, the “self-cleavage kobs at 160 uM GlcN6P” value in data set [1] is less than 1e-05 s⁻¹.

A33G G44U: the “self-cleavage kobs at 160 uM GlcN6P” value in data set [1] was less than 1e-05 s⁻¹. Also, the “self-cleavage kobs at 640 uM GlcN6P” value in data set [2] was less than 1e-05 s⁻¹. For the same variant, the “self-cleavage kobs at 10000 uM GlcN6P” value in data set [4] is less than 1e-05 s⁻¹.

Take U30G C61U C71G: in data set [2], the “self-cleavage kobs at 640 uM GlcN6P” value was less than 1e-05 s⁻¹.

As to C16G G29C C71G, the “self-cleavage kobs at 160 uM GlcN6P” value in data set [1] was 9.16e-05 ± 1.5e-05 s⁻¹.

Consider A12G G32A G35U C68G, for which the “self-cleavage kobs at 160 uM GlcN6P” value in data set [1] was less than 1e-05 s⁻¹.

Turning to G44A A53U C67A, the “self-cleavage kobs at 640 uM GlcN6P” value in data set [2] was 0.00108 ± 0.00027 s⁻¹. For the same variant, the “self-cleavage kobs at 2500 uM GlcN6P” value in data set [3] stood at 0.00591 ± 0.0013 s⁻¹.

In the case of C16G G44C C68U, the “self-cleavage kobs at 160 uM GlcN6P” value in data set [1] is less than 1e-05 s⁻¹. Besides, in data set [3], the “self-cleavage kobs at 2500 uM GlcN6P” value is less than 1e-05 s⁻¹.

On to G7U G37C G40A, for which, in data set [1], the “self-cleavage kobs at 160 uM GlcN6P” value is less than 1e-05 s⁻¹. Besides, the “self-cleavage kobs at 640 uM GlcN6P” value in data set [2] was less than 1e-05 s⁻¹.

As to G29U A42U A52U C67G, in data set [1], the “self-cleavage kobs at 160 uM GlcN6P” value was less than 1e-05 s⁻¹. In addition, the “self-cleavage kobs at 640 uM GlcN6P” value in data set [2] was less than 1e-05 s⁻¹.

For C11A A42G G63A, the “self-cleavage kobs at 160 uM GlcN6P” value in data set [1] is less than 1e-05 s⁻¹. The “self-cleavage kobs at 640 uM GlcN6P” value in data set [2] was less than 1e-05 s⁻¹.

Consider G41A A53G, for which the “self-cleavage kobs at 160 uM GlcN6P” value in data set [1] is 0.000343 ± 7e-05 s⁻¹. Moreover, in data set [2], the “self-cleavage kobs at 640 uM GlcN6P” value was 0.000842 ± 0.00015 s⁻¹. Moreover, the “self-cleavage kobs at 2500 uM GlcN6P” value in data set [3] is 0.00129 ± 0.00028 s⁻¹. Also, the “self-cleavage kobs at 10000 uM GlcN6P” value in data set [4] worked out at 0.00427 ± 0.00084 s⁻¹.

As to G29A A42G U45A, the “self-cleavage kobs at 160 uM GlcN6P” value in data set [1] turned out to be 6.61e-05 ± 3e-05 s⁻¹. Besides, the “self-cleavage kobs at 640 uM GlcN6P” value in data set [2] was 0.00154 ± 0.00038 s⁻¹. Further, in data set [3], the “self-cleavage kobs at 2500 uM GlcN6P” value is 0.00402 ± 0.0015 s⁻¹.

Regarding C34A G63A, the “self-cleavage kobs at 160 uM GlcN6P” value in data set [1] is less than 1e-05 s⁻¹. The “self-cleavage kobs at 640 uM GlcN6P” value in data set [2] was less than 1e-05 s⁻¹. The “self-cleavage kobs at 2500 uM GlcN6P” value in data set [3] is less than 1e-05 s⁻¹.

On to C34A G44U A53C U55G, for which, in data set [1], the “self-cleavage kobs at 160 uM GlcN6P” value is less than 1e-05 s⁻¹.

Turning to C11G A33U G44U U49A U65G, the “self-cleavage kobs at 160 uM GlcN6P” value in data set [1] was less than 1e-05 s⁻¹. In data set [2], the “self-cleavage kobs at 640 uM GlcN6P” value was less than 1e-05 s⁻¹. Further, the “self-cleavage kobs at 2500 uM GlcN6P” value in data set [3] was less than 1e-05 s⁻¹.

As to U54G A64G C68A, in data set [1], the “self-cleavage kobs at 160 uM GlcN6P” value was 5.71e-05 ± 2.2e-05 s⁻¹. Besides, the “self-cleavage kobs at 640 uM GlcN6P” value in data set [2] is 6.86e-05 ± 1.5e-05 s⁻¹. The “self-cleavage kobs at 2500 uM GlcN6P” value in data set [3] turned out to be 0.000107 ± 2.7e-05 s⁻¹.

Consider G7C A36G A39C, for which the “self-cleavage kobs at 160 uM GlcN6P” value in data set [1] was less than 1e-05 s⁻¹. For the same variant, the “self-cleavage kobs at 640 uM GlcN6P” value in data set [2] is less than 1e-05 s⁻¹.

As for A14G G51U, the “self-cleavage kobs at 160 uM GlcN6P” value in data set [1] is less than 1e-05 s⁻¹.

In the case of A6G A52G G63U, in data set [1], the “self-cleavage kobs at 160 uM GlcN6P” value was less than 1e-05 s⁻¹. In addition, the “self-cleavage kobs at 640 uM GlcN6P” value in data set [2] is less than 1e-05 s⁻¹. In data set [3], the “self-cleavage kobs at 2500 uM GlcN6P” value was less than 1e-05 s⁻¹.

Consider A12C A39U U46A C50G, for which the “self-cleavage kobs at 160 uM GlcN6P” value in data set [1] is less than 1e-05 s⁻¹. For the same variant, the “self-cleavage kobs at 640 uM GlcN6P” value in data set [2] is less than 1e-05 s⁻¹. The “self-cleavage kobs at 2500 uM GlcN6P” value in data set [3] is less than 1e-05 s⁻¹.

In the case of G9U U56C G62C, in data set [1], the “self-cleavage kobs at 160 uM GlcN6P” value was less than 1e-05 s⁻¹. Also, the “self-cleavage kobs at 640 uM GlcN6P” value in data set [2] was less than 1e-05 s⁻¹.

Regarding G38U C58U G63U, the “self-cleavage kobs at 160 uM GlcN6P” value in data set [1] is less than 1e-05 s⁻¹.

A14G A15G U55G A64G: the “self-cleavage kobs at 160 uM GlcN6P” value in data set [1] amounted to 0.00524 ± 0.0017 s⁻¹. The “self-cleavage kobs at 640 uM GlcN6P” value in data set [2] came to 0.00775 ± 0.002 s⁻¹.

In the case of U49C A53G, the “self-cleavage kobs at 160 uM GlcN6P” value in data set [1] is less than 1e-05 s⁻¹. Besides, in data set [2], the “self-cleavage kobs at 640 uM GlcN6P” value is less than 1e-05 s⁻¹. Also, the “self-cleavage kobs at 10000 uM GlcN6P” value in data set [4] was less than 1e-05 s⁻¹.

As for G9C G29U C50G C70G, the “self-cleavage kobs at 160 uM GlcN6P” value in data set [1] amounted to 0.000652 ± 0.00019 s⁻¹. Further, the “self-cleavage kobs at 640 uM GlcN6P” value in data set [2] is 0.000131 ± 4.2e-05 s⁻¹. Further, the “self-cleavage kobs at 2500 uM GlcN6P” value in data set [3] came to 0.000253 ± 9.9e-05 s⁻¹.

As for A6U U31G G41U A64C, in data set [1], the “self-cleavage kobs at 160 uM GlcN6P” value is less than 1e-05 s⁻¹. For the same variant, in data set [2], the “self-cleavage kobs at 640 uM GlcN6P” value was less than 1e-05 s⁻¹. The “self-cleavage kobs at 2500 uM GlcN6P” value in data set [3] was less than 1e-05 s⁻¹.
